Values quoted from earlier work in publication PMC4900764.

Molecular target: PEX5 (Saccharomyces cerevisiae) (UniProt P35056)
Assay: ITC

Chain of UniProt P35056 (P35056 whole entry): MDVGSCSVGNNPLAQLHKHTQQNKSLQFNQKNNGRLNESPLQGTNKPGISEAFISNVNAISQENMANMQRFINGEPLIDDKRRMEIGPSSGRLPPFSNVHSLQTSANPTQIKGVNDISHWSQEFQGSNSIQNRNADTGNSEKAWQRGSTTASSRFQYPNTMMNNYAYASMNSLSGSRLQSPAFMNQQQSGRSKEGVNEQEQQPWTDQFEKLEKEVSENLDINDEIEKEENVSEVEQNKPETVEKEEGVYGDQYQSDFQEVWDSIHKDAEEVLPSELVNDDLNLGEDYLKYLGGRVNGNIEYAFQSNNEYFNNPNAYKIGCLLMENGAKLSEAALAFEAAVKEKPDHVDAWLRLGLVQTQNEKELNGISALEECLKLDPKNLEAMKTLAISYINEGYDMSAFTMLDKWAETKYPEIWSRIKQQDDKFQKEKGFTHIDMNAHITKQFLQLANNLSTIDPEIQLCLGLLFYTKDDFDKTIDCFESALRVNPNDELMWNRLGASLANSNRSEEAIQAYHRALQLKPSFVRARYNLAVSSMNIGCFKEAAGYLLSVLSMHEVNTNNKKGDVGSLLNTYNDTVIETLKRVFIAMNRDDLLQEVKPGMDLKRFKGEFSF

Substance: PCS60 (from UniProt P38137)
- Kd: 190 nM
